{"source": "paper PMC9482650", "about": "“Quantitative fragmentomics allow affinity mapping of interactomes” (Nature Communications, 2022)"}
{"target": "PARD3_3, Q8TEW0", "sequence (Q8TEW0 582-685)": "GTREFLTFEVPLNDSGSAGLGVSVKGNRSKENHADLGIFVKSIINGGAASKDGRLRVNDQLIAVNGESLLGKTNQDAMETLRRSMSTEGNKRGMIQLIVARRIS", "test": "holdup assay", "design": "key: below the threshold = too weak to quantify, mostly under pKd 3.1 to 4", "details": "plain residues with an end cap or a label only (N-terminal biotin on a linker: ado-ado)"}
{"binder": "NPETRDETQL", "note": "[KCNT1, Q5JUK3]", "pKd": 3.64}
{"binder": "SSGSTSSSRI", "note": "[ADGRG1, Q9Y653]", "pKd": "below the threshold"}
{"target": "Inadl_1, Q8NI35", "sequence (Q8NI35 113-229)": "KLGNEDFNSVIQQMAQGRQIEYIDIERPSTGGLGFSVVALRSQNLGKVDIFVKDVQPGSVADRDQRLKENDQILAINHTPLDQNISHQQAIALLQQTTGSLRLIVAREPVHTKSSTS", "test": "holdup assay", "design": "key: below the threshold = too weak to quantify, mostly under pKd 3.1 to 4", "details": "plain residues with an end cap or a label only (N-terminal biotin on a linker: ado-ado)"}
{"binder": "NPETRDETQL", "note": "[KCNT1, Q5JUK3]", "pKd": "below the threshold"}
{"binder": "SSGSTSSSRI", "note": "[ADGRG1, Q9Y653]", "pKd": "below the threshold"}
{"target": "T1, APBA1_2, Q02410", "T1 sequence (Q02410 742-832, limits assumed, looked up)": "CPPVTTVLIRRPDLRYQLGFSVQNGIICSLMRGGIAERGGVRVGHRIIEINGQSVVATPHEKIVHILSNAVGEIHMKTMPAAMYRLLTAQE", "test": "holdup assay", "design": "key: below the threshold = too weak to quantify, mostly under pKd 3.1 to 4", "details": "plain residues with an end cap or a label only (N-terminal biotin on a linker: ado-ado)"}
{"binder": "NPETRDETQL", "note": "[KCNT1, Q5JUK3]", "pKd": "below the threshold"}
{"binder": "SSGSTSSSRI", "note": "[ADGRG1, Q9Y653]", "pKd": "below the threshold"}
{"target": "GIPC2, Q8TF65", "sequence (Q8TF65 112-203)": "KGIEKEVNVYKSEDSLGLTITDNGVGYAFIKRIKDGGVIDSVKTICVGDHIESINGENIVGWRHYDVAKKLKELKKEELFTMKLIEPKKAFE", "test": "holdup assay", "design": "key: below the threshold = too weak to quantify, mostly under pKd 3.1 to 4", "details": "plain residues with an end cap or a label only (N-terminal biotin on a linker: ado-ado)"}
{"binder": "NPETRDETQL", "note": "[KCNT1, Q5JUK3]", "pKd": 3.49}
{"binder": "SSGSTSSSRI", "note": "[ADGRG1, Q9Y653]", "pKd": "below the threshold"}
{"target": "DLG2_2, Q15700", "sequence (Q15700 189-283)": "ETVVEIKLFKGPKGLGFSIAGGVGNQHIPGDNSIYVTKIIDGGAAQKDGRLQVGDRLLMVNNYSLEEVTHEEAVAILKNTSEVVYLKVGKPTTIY", "test": "holdup assay", "design": "key: below the threshold = too weak to quantify, mostly under pKd 3.1 to 4", "details": "plain residues with an end cap or a label only (N-terminal biotin on a linker: ado-ado)"}
{"binder": "NPETRDETQL", "note": "[KCNT1, Q5JUK3]", "pKd": "below the threshold"}
{"binder": "SSGSTSSSRI", "note": "[ADGRG1, Q9Y653]", "pKd": 3.49}
{"target": "T2, HTRA3, P83110", "T2 sequence (P83110 354-453, limits assumed, looked up)": "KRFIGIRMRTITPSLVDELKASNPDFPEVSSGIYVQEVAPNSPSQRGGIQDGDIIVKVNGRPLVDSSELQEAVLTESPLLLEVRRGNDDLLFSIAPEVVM", "test": "holdup assay", "design": "key: below the threshold = too weak to quantify, mostly under pKd 3.1 to 4", "details": "plain residues with an end cap or a label only (N-terminal biotin on a linker: ado-ado)"}
{"binder": "NPETRDETQL", "note": "[KCNT1, Q5JUK3]", "pKd": "below the threshold"}
{"binder": "SSGSTSSSRI", "note": "[ADGRG1, Q9Y653]", "pKd": "below the threshold"}
{"target": "T3, GRIP1_3, Q9Y3R0", "T3 sequence (Q9Y3R0 247-346, limits assumed, looked up)": "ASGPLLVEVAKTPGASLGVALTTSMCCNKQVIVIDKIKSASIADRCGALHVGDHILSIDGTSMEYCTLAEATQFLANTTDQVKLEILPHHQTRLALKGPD", "test": "holdup assay", "design": "key: below the threshold = too weak to quantify, mostly under pKd 3.1 to 4", "details": "plain residues with an end cap or a label only (N-terminal biotin on a linker: ado-ado)"}
{"binder": "NPETRDETQL", "note": "[KCNT1, Q5JUK3]", "pKd": "below the threshold"}
{"binder": "SSGSTSSSRI", "note": "[ADGRG1, Q9Y653]", "pKd": "below the threshold"}
{"target": "FRMPD2_1, Q68DX3", "sequence (Q68DX3 770-861)": "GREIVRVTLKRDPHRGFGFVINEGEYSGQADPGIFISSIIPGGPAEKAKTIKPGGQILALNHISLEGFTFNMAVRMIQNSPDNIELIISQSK", "test": "holdup assay", "design": "key: below the threshold = too weak to quantify, mostly under pKd 3.1 to 4", "details": "plain residues with an end cap or a label only (N-terminal biotin on a linker: ado-ado)"}
{"binder": "NPETRDETQL", "note": "[KCNT1, Q5JUK3]", "pKd": "below the threshold"}
{"binder": "SSGSTSSSRI", "note": "[ADGRG1, Q9Y653]", "pKd": "below the threshold"}
{"target": "T4, TX1BP3, O14907", "T4 sequence (O14907 10-122, limits assumed, looked up)": "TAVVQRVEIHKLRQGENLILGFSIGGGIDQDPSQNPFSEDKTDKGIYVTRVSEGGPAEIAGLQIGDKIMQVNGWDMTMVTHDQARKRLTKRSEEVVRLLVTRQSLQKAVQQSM", "test": "holdup assay", "design": "key: below the threshold = too weak to quantify, mostly under pKd 3.1 to 4", "details": "plain residues with an end cap or a label only (N-terminal biotin on a linker: ado-ado)"}
{"binder": "NPETRDETQL", "note": "[KCNT1, Q5JUK3]", "pKd": 3.62}
{"binder": "SSGSTSSSRI", "note": "[ADGRG1, Q9Y653]", "pKd": "below the threshold"}
{"target": "T5, SYNJ2BP, P57105", "T5 sequence (P57105 8-110, limits assumed, looked up)": "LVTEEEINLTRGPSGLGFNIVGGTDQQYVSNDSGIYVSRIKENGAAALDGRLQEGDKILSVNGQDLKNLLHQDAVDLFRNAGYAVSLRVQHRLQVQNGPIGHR", "test": "holdup assay", "design": "key: below the threshold = too weak to quantify, mostly under pKd 3.1 to 4", "details": "plain residues with an end cap or a label only (N-terminal biotin on a linker: ado-ado)"}
{"binder": "NPETRDETQL", "note": "[KCNT1, Q5JUK3]", "pKd": 4.43}
{"binder": "SSGSTSSSRI", "note": "[ADGRG1, Q9Y653]", "pKd": "below the threshold"}
{"target": "T6, LNX2_3, Q8N448", "T6 sequence (Q8N448 463-564, limits assumed, looked up)": "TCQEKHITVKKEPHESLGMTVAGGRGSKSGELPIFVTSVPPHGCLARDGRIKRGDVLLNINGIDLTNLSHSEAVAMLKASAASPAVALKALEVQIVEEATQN", "test": "holdup assay", "design": "key: below the threshold = too weak to quantify, mostly under pKd 3.1 to 4", "details": "plain residues with an end cap or a label only (N-terminal biotin on a linker: ado-ado)"}
{"binder": "NPETRDETQL", "note": "[KCNT1, Q5JUK3]", "pKd": "below the threshold"}
{"binder": "SSGSTSSSRI", "note": "[ADGRG1, Q9Y653]", "pKd": "below the threshold"}
{"target": "T7, SHANK1, Q9Y566", "T7 sequence (Q9Y566 658-767, limits assumed, looked up)": "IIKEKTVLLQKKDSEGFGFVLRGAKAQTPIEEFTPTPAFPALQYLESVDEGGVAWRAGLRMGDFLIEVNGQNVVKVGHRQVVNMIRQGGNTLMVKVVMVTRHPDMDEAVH", "test": "holdup assay", "design": "key: below the threshold = too weak to quantify, mostly under pKd 3.1 to 4", "details": "plain residues with an end cap or a label only (N-terminal biotin on a linker: ado-ado)"}
{"binder": "NPETRDETQL", "note": "[KCNT1, Q5JUK3]", "pKd": 4.14}
{"binder": "SSGSTSSSRI", "note": "[ADGRG1, Q9Y653]", "pKd": 4.31}
{"target": "T8, MPDZ_10, O75970", "T8 sequence (O75970 1624-1722, limits assumed, looked up)": "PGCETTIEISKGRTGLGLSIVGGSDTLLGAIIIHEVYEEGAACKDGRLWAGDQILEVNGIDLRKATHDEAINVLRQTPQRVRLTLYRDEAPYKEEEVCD", "test": "holdup assay", "design": "key: below the threshold = too weak to quantify, mostly under pKd 3.1 to 4", "details": "plain residues with an end cap or a label only (N-terminal biotin on a linker: ado-ado)"}
{"binder": "NPETRDETQL", "note": "[KCNT1, Q5JUK3]", "pKd": "below the threshold"}
{"binder": "SSGSTSSSRI", "note": "[ADGRG1, Q9Y653]", "pKd": "below the threshold"}
{"target": "T9, SNTB1, Q13884", "T9 sequence (Q13884 107-205, limits assumed, looked up)": "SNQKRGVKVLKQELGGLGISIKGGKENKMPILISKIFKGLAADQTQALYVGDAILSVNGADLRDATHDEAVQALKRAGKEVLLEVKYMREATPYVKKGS", "test": "holdup assay", "design": "key: below the threshold = too weak to quantify, mostly under pKd 3.1 to 4", "details": "plain residues with an end cap or a label only (N-terminal biotin on a linker: ado-ado)"}
{"binder": "NPETRDETQL", "note": "[KCNT1, Q5JUK3]", "pKd": 4.35}
{"binder": "SSGSTSSSRI", "note": "[ADGRG1, Q9Y653]", "pKd": "below the threshold"}
{"target": "T10, PDZD7_3, Q9H5P4", "T10 sequence (Q9H5P4 857-944, limits assumed, looked up)": "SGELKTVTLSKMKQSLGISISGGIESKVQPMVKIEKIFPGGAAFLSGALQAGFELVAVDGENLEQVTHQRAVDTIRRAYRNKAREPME", "test": "holdup assay", "design": "key: below the threshold = too weak to quantify, mostly under pKd 3.1 to 4", "details": "plain residues with an end cap or a label only (N-terminal biotin on a linker: ado-ado)"}
{"binder": "NPETRDETQL", "note": "[KCNT1, Q5JUK3]", "pKd": 4.66}
{"binder": "SSGSTSSSRI", "note": "[ADGRG1, Q9Y653]", "pKd": 4.3}
{"target": "NHERF4_4, Q86UT5", "sequence (Q86UT5 464-550)": "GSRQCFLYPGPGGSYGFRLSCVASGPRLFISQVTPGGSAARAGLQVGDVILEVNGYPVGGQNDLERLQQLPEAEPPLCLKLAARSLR", "test": "holdup assay", "design": "key: below the threshold = too weak to quantify, mostly under pKd 3.1 to 4", "details": "plain residues with an end cap or a label only (N-terminal biotin on a linker: ado-ado)"}
{"binder": "NPETRDETQL", "note": "[KCNT1, Q5JUK3]", "pKd": 3.99}
{"binder": "SSGSTSSSRI", "note": "[ADGRG1, Q9Y653]", "pKd": "below the threshold"}
{"target": "T11, APBA1_1, Q02410", "T11 sequence (Q02410 651-752, limits assumed, looked up)": "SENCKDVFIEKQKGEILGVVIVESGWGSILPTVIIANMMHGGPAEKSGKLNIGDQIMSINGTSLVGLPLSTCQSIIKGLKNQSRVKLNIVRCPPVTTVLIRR", "test": "holdup assay", "design": "key: below the threshold = too weak to quantify, mostly under pKd 3.1 to 4", "details": "plain residues with an end cap or a label only (N-terminal biotin on a linker: ado-ado)"}
{"binder": "NPETRDETQL", "note": "[KCNT1, Q5JUK3]", "pKd": "below the threshold"}
{"binder": "SSGSTSSSRI", "note": "[ADGRG1, Q9Y653]", "pKd": "below the threshold"}
{"target": "MAST1, Q9Y2H9", "sequence (Q9Y2H9 962-1065)": "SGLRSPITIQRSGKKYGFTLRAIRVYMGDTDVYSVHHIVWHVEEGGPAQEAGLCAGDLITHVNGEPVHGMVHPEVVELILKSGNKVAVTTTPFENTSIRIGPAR", "test": "holdup assay", "design": "key: below the threshold = too weak to quantify, mostly under pKd 3.1 to 4", "details": "plain residues with an end cap or a label only (N-terminal biotin on a linker: ado-ado)"}
{"binder": "NPETRDETQL", "note": "[KCNT1, Q5JUK3]", "pKd": 4.97}
{"binder": "SSGSTSSSRI", "note": "[ADGRG1, Q9Y653]", "pKd": 4}
{"target": "GRID2IP_2, A4D2P6", "sequence (A4D2P6 272-370)": "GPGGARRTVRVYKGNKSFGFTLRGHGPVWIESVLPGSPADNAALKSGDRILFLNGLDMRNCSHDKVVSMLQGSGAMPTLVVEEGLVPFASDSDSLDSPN", "test": "holdup assay", "design": "key: below the threshold = too weak to quantify, mostly under pKd 3.1 to 4", "details": "plain residues with an end cap or a label only (N-terminal biotin on a linker: ado-ado)"}
{"binder": "NPETRDETQL", "note": "[KCNT1, Q5JUK3]", "pKd": 3.85}
{"binder": "SSGSTSSSRI", "note": "[ADGRG1, Q9Y653]", "pKd": 4.02}
{"target": "T12, GRIP1_7, Q9Y3R0", "T12 sequence (Q9Y3R0 999-1096, limits assumed, looked up)": "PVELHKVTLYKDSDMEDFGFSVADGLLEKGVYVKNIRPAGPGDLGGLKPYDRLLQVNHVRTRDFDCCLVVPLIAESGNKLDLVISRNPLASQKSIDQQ", "test": "holdup assay", "design": "key: below the threshold = too weak to quantify, mostly under pKd 3.1 to 4", "details": "plain residues with an end cap or a label only (N-terminal biotin on a linker: ado-ado)"}
{"binder": "NPETRDETQL", "note": "[KCNT1, Q5JUK3]", "pKd": "below the threshold"}
{"binder": "SSGSTSSSRI", "note": "[ADGRG1, Q9Y653]", "pKd": "below the threshold"}
{"target": "GRID2IP_1, A4D2P6", "sequence (A4D2P6 1-87)": "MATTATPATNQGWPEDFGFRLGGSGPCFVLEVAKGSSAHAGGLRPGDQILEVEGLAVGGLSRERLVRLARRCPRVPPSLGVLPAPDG", "test": "holdup assay", "design": "key: below the threshold = too weak to quantify, mostly under pKd 3.1 to 4", "details": "plain residues with an end cap or a label only (N-terminal biotin on a linker: ado-ado)"}
{"binder": "NPETRDETQL", "note": "[KCNT1, Q5JUK3]", "pKd": "below the threshold"}
{"binder": "SSGSTSSSRI", "note": "[ADGRG1, Q9Y653]", "pKd": "below the threshold"}
{"target": "T13, MPP7, Q5T2T1", "T13 sequence (Q5T2T1 134-230, limits assumed, looked up)": "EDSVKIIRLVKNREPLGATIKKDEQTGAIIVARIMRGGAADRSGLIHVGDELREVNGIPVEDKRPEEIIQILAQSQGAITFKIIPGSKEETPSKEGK", "test": "holdup assay", "design": "key: below the threshold = too weak to quantify, mostly under pKd 3.1 to 4", "details": "plain residues with an end cap or a label only (N-terminal biotin on a linker: ado-ado)"}
{"binder": "NPETRDETQL", "note": "[KCNT1, Q5JUK3]", "pKd": "below the threshold"}
{"binder": "SSGSTSSSRI", "note": "[ADGRG1, Q9Y653]", "pKd": "below the threshold"}
{"target": "MAGI3_2, Q5TCQ9", "sequence (Q5TCQ9 398-503)": "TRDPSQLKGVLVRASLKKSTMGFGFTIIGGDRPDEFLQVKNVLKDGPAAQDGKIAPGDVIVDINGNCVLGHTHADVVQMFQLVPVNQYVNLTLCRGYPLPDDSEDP", "test": "holdup assay", "design": "key: below the threshold = too weak to quantify, mostly under pKd 3.1 to 4", "details": "plain residues with an end cap or a label only (N-terminal biotin on a linker: ado-ado)"}
{"binder": "NPETRDETQL", "note": "[KCNT1, Q5JUK3]", "pKd": "below the threshold"}
{"binder": "SSGSTSSSRI", "note": "[ADGRG1, Q9Y653]", "pKd": 3.63}
